Test results: doi:10.1101/2021.10.12.464151
Blank lines part the entries; values can stand above or below the molecule they belong to.

Columns and labels:
[1] = biological target: Kip3_(448)^R351A-R353A (yeast); test: BLI
[2] = biological target: Kip3_(448) K257A-R262A (yeast); test: BLI
[3] = biological target: tubulin purified from bovine brains (αβ-tubulin heterodimer) (bovine)

- fold lower affinity (against Kip3 (448)) [1]: 1.8 fold
- fold weaker affinity (increased Kd) relative to wild-type Kip3 (448) [2]: 10 fold
Molecule: tubulin purified from bovine brains (αβ-tubulin heterodimer) (complex)

- plus-end dwell time on microtubules, against wild type [3]: 2 fold
B1: Kip3FL^K257A-R262A (natural protein)
chain: MNVPETRQSSIVVAIRVRPFTSMEKTRLVNEASGAEANFPGLGDSSLILPMSNNSDSDIDIDAEEGSTRSKRNSLLRRKVIRPEGIRKIVDCVDDRMLIFDPADRNPLNKVSDQVLNSMRARATKATASSINNSNATNKFSSQRRRHGGEIKFVFDKLFDETSSQARVYKETTSPLLDSVLDGFNSTVFAYGATGCGKTYTVSGTPSQPGIIFLAMEELFNKITDLKDEKDFEISLSYLEIYNERIRDLLKPETPSARLVIAEDTQNHIKVANLSYHHPNTVEDVMDLVVQGNINRTTSPTEANEVSSRSHAVLQIHIMQTNKLVDLTSQHTFATLSIIDLAGSERAAATRNRGIRLHEGANINRSLLALGNCINALCLNDGSRSCHIPYRDSKLTRLLKFSLGGNCKTVMIVCISPSSSHYDETLNTLKYANRAKEIKTKIIRNQQSLSRHVGSYLKMITEQKRQIEELREREEKMISLKLTKYKLNKEKIQLAINECVNRVQQTYAGVETYQVAKTLKSLILCKRRFLQMVKLEVDNLILLFEREESTAAEMQPVISNCRMISGQLYNKIHELEMKFDETDTLSSVIHQVHSIDLNKLREMEDWDETYDLVYLESCLNQISELQRNEILVNSSIMTEKLMSDPGLNSRFKFLSKWLMNRTPNIESIIQDLVHIDEEFESFARTFIANPDSNFTNTNINIINTTAADLAVPAETLQRQNFSQKKVKWTSPDLSPSPMIEPQPELEPELHQDQDAIASEVDVSMQDTTFNEQGPSTPSAPTTAVPRRKMRSSLLTHQSLLATARK
modifications: TMR (HALO-TMR ligand) on the HALO tag
